Experimental findings from US20120058906A1 (published 2012) are described below.

In experiment [1] the target is T1, rHuman EGF R/Fc Chimera, CF (R&D Systems Cat#344-ER) (human, UniProt P00533 25-645).
T1 construct: Bought reagent; also called epidermal growth factor receptor; Fc part of the bought chimera not given
Put plainly: ECL (MSD multi-spot), antigen spotted on plate; Fab 88.1 nM; blank spot 301.

The target in experiment [2] is T2, rHuman Erythropoietin R/Fc Chimera, CF (R&D Systems Cat#963-ER) (human, UniProt P19235 25-250).
T2 construct: Bought reagent; also called EPO R/Fc; Epo R; Fc part of the bought chimera not given
T2 sequence: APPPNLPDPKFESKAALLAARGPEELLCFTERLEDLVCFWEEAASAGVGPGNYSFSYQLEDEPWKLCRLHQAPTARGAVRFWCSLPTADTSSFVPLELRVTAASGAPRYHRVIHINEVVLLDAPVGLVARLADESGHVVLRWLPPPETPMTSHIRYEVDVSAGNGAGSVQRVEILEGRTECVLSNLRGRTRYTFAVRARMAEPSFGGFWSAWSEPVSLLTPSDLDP
Described as above.

The target of experiment [3] is T3, rHuman P-Cadherin/Fc Chimera, CF (R&D Systems Cat#861-PC) (human, UniProt P22223 108-654).
T3 construct: Bought reagent; also called CDH3; Fc part of the bought chimera not given
Described as above.

Experiment [4] concerns the target T4, rHuman CD44/Fc Chimera, CF (R&D Systems Cat#3660-CD) (human, UniProt P16070 21-220).
T4 construct: Bought reagent; Fc part of the bought chimera not given
The experiment is described as above.

Experiment [5] concerns the target T5, rHuman HGF R/c-MET/Fc Chimera, CF (R&D Systems Cat#358-MT/CF) (human, UniProt P08581 25-932).
T5 construct: Bought reagent; also called HGF R/Fc; hepatocyte growth factor receptor; Fc part of the bought chimera not given
Described as above.

For experiment [6], the target named is T6, rHuman Notch-1/Fc Chimera, CF (R&D Systems Cat#3647-TK) (human, UniProt P46531 19-526).
T6 construct: Bought reagent; Fc part of the bought chimera not given
Described as above.

Experiment [7] addresses T7, rHuman IGF-1 sR (IGF-1 sR), CF (R&D Systems Cat#391-GR) (human, UniProt P08069 31-932).
T7 construct: Bought soluble receptor; also called insulin-like growth factor-1 soluble receptor; IGF-R1
Described as above.

Experiment [8] concerns the target T8, Recombinant Human DLL4 (R&D Systems Cat#1506-D4/CF) (human, UniProt Q9NR61 27-524).
T8 construct: Bought reagent; also called delta-like protein 4
The description is as above.

Experiment [9] concerns the target T9, rHuman ErbB2/Fc Chimera, CF (R&D Systems Cat#1129-ER) (human, UniProt P04626 23-652).
T9 construct: Bought reagent; also called HER2/neu; human epidermal growth factor 2 receptor; Fc part of the bought chimera not given
Described as above.

The target in experiment [10] is T10, rHuman Notch-1/Fc Chimera, CF (R&D Systems Cat#3647-TK) (human, UniProt P46531 19-526).
T10 construct: Purchased Fc chimera; not shown: Fc portion of the purchased chimera
Put plainly: MSD ECL multi-spot plate, antigen immobilized; Fab 200 nM; blank spot 588.

The target in experiment [11] is T11, rHuman ErbB2/Fc Chimera, CF (R&D Systems Cat#1129-ER) (human, UniProt P04626 23-652).
T11 construct: Purchased Fc chimera; also called HER2/neu; not shown: Fc portion of the purchased chimera
The experiment is described as above.

Experiment [12] has as its target T12, Recombinant Human DLL4 (R&D Systems Cat#1506-D4/CF) (human, UniProt Q9NR61 27-524).
T12 construct: Bought recombinant protein; also called delta-like protein 4
The experiment can be described thus: ECL (MSD multi-spot), antigen on plate, Fab 10 nM.

The target of experiment [13] is T13, rHuman Erythropoietin R/Fc Chimera, CF (R&D Systems Cat#963-ER) (human, UniProt P19235 25-250).
T13 construct: Bought Fc chimera; also called EPO R/Fc; Epo R; not shown: Fc of the bought chimera
T13 sequence: T2 sequence
Put plainly: ECL (MSD multi-spot), antigen on plate, Fab 10 nM.

The target in experiment [14] is T14, rHuman IGF-1 sR (insulin-like growth factor-1 soluble receptor), CF (R&D Systems Cat#391-GR) (human, UniProt P08069 31-932).
T14 construct: Bought soluble receptor; also called IGF-R1
The experiment can be described thus: ECL (MSD multi-spot), antigen on plate, Fab 10 nM.

Experiment [15] concerns the target T15, rHuman HGF R/c-MET/Fc Chimera, CF (R&D Systems Cat#358-MT/CF) (human, UniProt P08581 25-932).
T15 construct: Bought Fc chimera; also called HGF R/Fc; not shown: Fc of the bought chimera
Put plainly: ECL (MSD multi-spot), antigen on plate, Fab 10 nM.

Experiment [16] concerns the target T16, rHuman EGF R/Fc Chimera, CF (R&D Systems Cat#344-ER) (human, UniProt P00533 25-645).
T16 construct: Bought Fc chimera; also called ErbB-1; not shown: Fc of the bought chimera
Put plainly: ECL (MSD multi-spot), antigen on plate, Fab 10 nM.

The target in experiment [17] is T17, rHuman P-Cadherin/Fc Chimera, CF (R&D Systems Cat#861-PC) (human, UniProt P22223 108-654).
T17 construct: Bought Fc chimera; also called CDH3; not shown: Fc of the bought chimera
Put plainly: ECL (MSD multi-spot), antigen on plate, Fab 10 nM.

Experiment [18] concerns the target T18, rHuman CD44/Fc Chimera, CF (R&D Systems Cat#3660-CD) (human, UniProt P16070 21-220).
T18 construct: Bought Fc chimera; not shown: Fc of the bought chimera
Put plainly: ECL (MSD multi-spot), antigen on plate, Fab 10 nM.
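Also: blank spot per well as comparator with Hit at signal to blank ratio of 4 or more.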

B1: Fab VH1-46_IGHD3-10*01_IGHJ4*01 & B3_IGKJ1*01 (Fab, V domains shown)
VH: QVQLVQSGAEVKKPGASVKVSCKASGYTFTSYYMHWVRQAPGQGLEWMGIINPSGGSTSYAQKFQGRVTMTRDTSTSTVYMELSSLRSEDTAVYYCAREYYYGSGSYYNDYFDYWGQGTLVTVSS
VL: not shown
notes: also called IGHV1-46*01
B1: the ECL signal amounted to 376 in experiment [1]; 3370 in experiment [2]; 278 in [3]; 340 in experiment [4]; 392 in experiment [5]; 440 in experiment [6]. The ECL signal came out at 273 in experiment [7], 434 in experiment [8] and 200 in experiment [9].

B2: Fab VH5-51_IGHD5-18*01>3_IGHJ4*01_G100K & V3-4_IGLJ1*01 (Fab, V domains shown)
VH: EVQLVQSGAEVKKPGESLKISCKGSGYSFTSYWIGWVRQMPGKGLEWMGIIYPGDSDTRYSPSFQGQVTISADKSISTAYLQWSSLKASDTAMYYCARRKYSYGYDYFDYWGQGTLVTVSS
VL: QTVVTQEPSFSVSPGGTVTLTCGLSSGSVSTSYYPSWYQQTPGQAPRTLIYSTNTRSSGVPDRFSGSILGNKAALTITGAQADDESDYYCVLYMGSGISYVFGTGTKVTVL
notes: It was expressed as a Fab: CH1 with tags from Plasmid A and lambda CL from Plasmid E; also called Fab No. 22
With B2, the figures for the ECL signal in [10] and in experiment [11] were 1250 ECL signal and 1470 ECL signal, respectively.

B3: Fab VH1-46_IGHD6-6*01_IGHJ1*01_S102A_S103P_S104F & L6_IGKJ1*01_S28P (Fab, V domains shown)
VH: QVQLVQSGAEVKKPGASVKVSCKASGYTFTSYYMHWVRQAPGQGLEWMGIINPSGGSTSYAQKFQGRVTMTRDTSTSTVYMELSSLRSEDTAVYYCAREEYAPFSAEYFQHWGQGTLVTVSS
VL: EIVLTQSPATLSLSPGERATLSCRASQPVSSYLAWYQQKPGQAPRLLIYDASNRATGIPARFSGSGSGTDFTLTISSLEPEDFAVYYCQQRSNWPPWTFGQGTKVEIKR
notes: Fab
Take B3: the ECL signal in experiment [12] was 26900 ECL signal; in experiment [13], 392 ECL signal; in experiment [14], 152 ECL signal; in [15] it was 136 ECL signal; in experiment [16], 207 ECL signal; in experiment [17], 216 ECL signal. The ECL signal in [18] came to 212 ECL signal.
